Measurements published in patent US20220242939A1 (BIOARCTIC, published 2022).
Non-standard residues stand in square brackets, D forms with d. No end group written: not given here. Ahx = NCCCCCC(=O)O

What was measured:
[1] = target: 63F6, monoclonal anti-A199 antibody; assay: inhibition ELISA: antigen in solution varied, antibody 63F6 at 0.05 µg/ml, plate coated with A199-BSA peptide
Protocol: (§1) 0.5 μg/ml solution of N-terminal neo-epitope peptide A199 (SEQ ID NO:51) conjugated to BSA was prepared by dilution in PBS. 50 μl/well were added to an ELISA half-area 96 well microtiter plate, the plate was sealed with adhesive sealer and incubated over night at 4° C. After discarding the solution, the plates were blocked with protein-free blocking solution (Pierce) (150 μl/well) at room temperature for 90 min with shaking (900 rpm). The blocked plate was washed four times with washing buffer containing 0.28 mM NaH₂PO₄, 2.5 mM Na₂HPO₄, 150 mM NaCl, 0.1% TWEEN®-20 and 0.0075% Kathon CG.
(§2) Serial dilutions of each synthetic ApoE peptide were prepared by 4-fold dilution starting from 10000 ng/ml in 96 well storage plates (30 μl final volume). Each purified monoclonal antibody to be tested was added (30 μl) to the serial dilutions of each of the synthetic ApoE peptides at a final concentration of 0.05 μg/ml per well. […]
(§3) The pre-incubated samples were transferred (50 μl/well) to the blocked ELISA plates, and plates were incubated for 10 min at room temperature without shaking. […] Alkaline phosphatase substrate (50 μl/well) was added to the plate and the optical density was read every 10 min at a wavelength of 405 nm for up to 120 min. The IC50 values were determined from a log inhibitor concentration response curve (FIG. 29).

[2] = target: 7C7, recombinant IgG2c antibody; assay: inhibition ELISA, second protocol; antibody at 0.05 ug/ml pre-incubated with the peptide in solution (4-fold dilutions from 10000 ng/ml), then on a plate coated with G200-BSA peptide; blank reduced OD 405 nm
Protocol: (§4) 3-fold serial dilutions of each synthetic ApoE peptide, recombinant C-terminal ApoE fragment G200-HIS and full-length ApoE4 were prepared by 4-fold dilution starting from 1000 ng/ml in 96 well storage plates (30 μl final volume). Each recombinant antibody to be tested was added (30 μl) to the serial dilutions of each of the synthetic ApoE peptides, G200-HIS or full-length ApoE4 at a final concentration of 0.05 μg/ml per well. Samples were pre-incubated for 45 min at room temperature with shaking (900 rpm).
(§5) The pre-incubated samples were transferred (50 μl/well) to the blocked ELISA plates, and plates were incubated for 25 min at room temperature without shaking. Plates were washed as described above. Alkaline phosphatase conjugated anti-mouse IgG detection antibody (Mabtech, cat. no. 3310-4) was diluted 1:1000 and added to each plate (50 μl/well). The plate was sealed and incubated with shaking (900 rpm) for 45 min at room temperature and subsequently washed as described above. Alkaline phosphatase substrate (50 μl/well) was added to the plate and the optical density was read every 15 min at a wavelength of 405 nm for up to 120 min. The IC50 values were determined from a log inhibitor concentration response curve (FIG. 17).
(§6) In addition, a second inhibition ELISA with the ApoE peptides conjugated to BSA was run, in which the starting concentration of the antigens in solution was increased 10-fold. i.e. the starting concentration of the N-terminal neo-epitope of synthetic ApoE peptides conjugated to BSA and starting at amino acid L198 (SEQ ID NO:52), A199 (SEQ ID NO:51) or G200 (SEQ ID NO:50), or to BSA-conjugated negative control peptide (SEQ ID NO:53), was 10000 ng/ml. Furthermore, a 4-fold serial dilution of antigen was used, the plates were blocked with protein-free blocking solution (Pierce) for 90 min, the pre-incubated samples were incubated on the coated plates for 10 min (instead of 25 min), and the optical density was read every 10 min (instead of every 15 min). IC50 values were determined from a log inhibitor concentration response curve (FIG. 20).

[3] = target: 17G4, recombinant IgG2c antibody; assay: as above
Protocol: as §4, §5, §6

[4] = target: T1, 7B10, recombinant IgG2c antibody; assay: as above
T1 construct: also called 7610
Protocol: as §4, §5, §6

[5] = target: 23D5, recombinant IgG2c antibody; assay: as above
Protocol: as §4, §5, §6

[6] = target: 38G9, monoclonal anti-A199 antibody; assay: inhibition ELISA: antigen in solution varied, antibody 38G9 at 0.05 µg/ml, plate coated with A199-BSA peptide
Protocol: as §1, §2, §3

[7] = target: 6F4, monoclonal anti-L198 antibody; assay: inhibition ELISA; antibody at 0.05 ug/ml pre-incubated with the peptide in solution (4-fold dilutions from 10000 ng/ml), then on a plate coated with L198-BSA peptide; blank reduced OD 405 nm
Protocol: as §1, with “L198” for “A199”, “NO:52)” for “NO:51)”
as §4, with “Serial” for “3-fold serial”, “peptide” for “peptide, recombinant C-terminal ApoE fragment G200-HIS and full-length ApoE4”, “10000” for “1000”, “peptides” for “peptides, G200-HIS or full-length ApoE4”
as §5, with “10” for “25”, “10” for “15”, “25).” for “17).”

[8] = target: 67G3, monoclonal anti-A199 antibody; assay: inhibition ELISA: antigen in solution varied, antibody 67G3 at 0.05 µg/ml, plate coated with A199-BSA peptide
Protocol: as §1, §2, §3

[9] = target: 36A12, monoclonal anti-A199 antibody; assay: inhibition ELISA: antigen in solution varied, antibody 36A12 at 0.05 µg/ml, plate coated with A199-BSA peptide
Protocol: as §1, §2, §3

[10] = target: T2, recombinant C-terminal ApoE fragment L198-HIS (ApoE-L198-H299-10xHIS) (human, UniProt P02649 216-317); assay: SPR (Biacore 8K), L198-HIS amine-coupled on CM5, antibody as analyte, bivalent analyte fit (kd1)
T2 construct: also called L198-HIS fragment
Protocol: (§7) Selectivity evaluation and KD determination of purified monoclonal antibodies by surface plasmon resonance: Binding interactions between the antigens and antibodies were evaluated by surface plasmon resonance (SPR) using a Biacore 8K instrument (GE Healthcare) according to standard procedures.
(§8) Selectivity evaluation and KD determination of purified monoclonal antibodies by surface plasmon resonance: The five purified monoclonal antibodies 6F4, 8B3, 12B1, 15F8 and 15H11 were evaluated for selectivity, and KD values for the target antigen were determined by surface plasmon resonance.

[11] = target: T2, recombinant C-terminal ApoE fragment …; assay: SPR (Biacore 8K), L198-HIS amine-coupled on CM5, antibody as analyte, bivalent analyte fit (KD1)
Protocol: as §7, §8

[12] = target: T3, L198 N-terminal neo-epitope peptide LAGQPL-Acp-C (SEQ ID NO:52) conjugated to BSA (human, not fully specified (residue 8); printed as LAGQPL-Acp-C; also: C-terminal Cys conjugated to BSA carrier); assay: direct ELISA, L198-BSA peptide coated at 1 µg/ml
T3 construct: BSA carrier; also called L198-BSA peptide
T3 peptide: LAGQPL[Ahx]C
Protocol: (§9) Selectivity evaluation of purified monoclonal antibodies by direct ELISA: The direct ELISA described below was used to evaluate the binding selectivity of the purified monoclonal antibodies produced in Example 14.
(§10) The screening was performed according to standard ELISA protocols. Briefly, 1 μg/ml solutions of BSA-conjugated neo-epitope peptides and negative control peptide, and 0.1 μM recombinant C-terminal ApoE fragment and full-length ApoE (Abcam, cat. no. ab50243) were prepared by dilution in PBS. 50 μl/well were added to an ELISA half-area 96 well microtiter plate, and the plate was sealed with adhesive sealer and incubated over night at 4° C. After discarding the solution, the plates were blocked with 150 μl/well of protein-free blocking solution (Pierce) for 1 h at room temperature with shake (600-900 rpm). The plates were washed four times with washing buffer containing 0.28 mM NaH₂PO₄, 2.5 mM Na₂HPO₄, 150 mM NaCl, 0.1% TWEEN®-20 and 0.0075% Kathon CG. Purified monoclonal antibodies of interest were 3-fold serially diluted with a starting dilution at 3 μg/ml (mixed 1:2 with dilution buffer (PBS with 0.1% BSA and 0.05% TWEEN®-20)). An anti-ApoE C-terminal antibody was used as a reference antibody (ApoE E-8 mouse monoclonal, Santa Cruz Biotechnology, cat. no. sc-393302). 50 μl/well were added into the ELISA plates and incubated for 2 h at room temperature with shake (600-900 rpm). The plates were washed four times as described previously. […] After another wash (as described previously), 50 μl/well of K-Blue® aqueous substrate (Neogen) were added, and the reaction was stopped after 5-15 min with 50 μl/well of 0.5 M […]. The optical density at 450 nm was read using an ELISA reader (Tecan).

[13] = target: T2, recombinant C-terminal ApoE fragment …; assay: direct ELISA, L198-HIS coated at 0.1 µM
Protocol: as §9, §10

[14] = target: T4, L198 N-terminal neo-epitope peptide LAGQPLQE-Acp-C (SEQ ID NO:54) conjugated to BSA (human, not fully specified (residue 10); printed as LAGQPLQE-Acp-C; also: C-terminal Cys conjugated to BSA carrier); assay: direct ELISA after limiting dilution
T4 construct: BSA carrier
T4 peptide: LAGQPLQE[Ahx]C

[15] = target: T2, recombinant C-terminal ApoE fragment …; assay: SPR (Biacore 8K), L198-HIS amine-coupled on CM5, antibody as analyte, bivalent analyte fit (ka1)
[16] = target: T5, full-length ApoE in human brain extract from Alzheimer's disease patients (human, UniProt P02649 19-317); assay: Western blot of AD brain RIPA 2% SDS extract; monoclonal antibody at 2 ug/ml as primary antibody
T5 construct: mature; Endogenous protein on Western blot or in solution (IP); also called ApoE full-length protein
T5 sequence (P02649 19-317): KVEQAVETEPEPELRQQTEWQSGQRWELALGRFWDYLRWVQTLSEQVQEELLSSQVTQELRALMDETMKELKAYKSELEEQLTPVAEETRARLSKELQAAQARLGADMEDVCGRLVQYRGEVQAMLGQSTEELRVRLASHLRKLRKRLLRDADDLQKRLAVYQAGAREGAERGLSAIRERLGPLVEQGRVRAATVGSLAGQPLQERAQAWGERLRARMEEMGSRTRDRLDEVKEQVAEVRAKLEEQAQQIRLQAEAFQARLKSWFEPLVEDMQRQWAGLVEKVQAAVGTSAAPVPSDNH

T2 sequence (P02649 other isoform, or with tags, fused parts or gaps limits assumed): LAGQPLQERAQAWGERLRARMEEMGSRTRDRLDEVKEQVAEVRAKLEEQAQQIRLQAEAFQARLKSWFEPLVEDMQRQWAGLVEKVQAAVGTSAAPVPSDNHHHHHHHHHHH
38G9, monoclonal anti-A199 antibody, sequence (VH, as listed by the source, chain 1 of 2): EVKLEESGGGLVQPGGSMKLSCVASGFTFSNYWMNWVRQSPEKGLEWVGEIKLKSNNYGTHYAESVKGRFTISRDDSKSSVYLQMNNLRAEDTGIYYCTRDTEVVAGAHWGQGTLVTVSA
38G9, monoclonal anti-A199 antibody, sequence (VL, as listed by the source, chain 2 of 2): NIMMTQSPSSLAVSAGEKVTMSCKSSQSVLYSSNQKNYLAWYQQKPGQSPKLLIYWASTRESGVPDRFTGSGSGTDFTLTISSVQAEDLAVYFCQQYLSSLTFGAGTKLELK
T1 sequence (VH, as listed by the source, chain 1 of 2): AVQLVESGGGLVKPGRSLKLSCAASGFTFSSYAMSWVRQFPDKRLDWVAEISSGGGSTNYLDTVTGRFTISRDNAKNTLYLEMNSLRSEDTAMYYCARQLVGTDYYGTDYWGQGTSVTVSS
T1 sequence (VL, as listed by the source, chain 2 of 2): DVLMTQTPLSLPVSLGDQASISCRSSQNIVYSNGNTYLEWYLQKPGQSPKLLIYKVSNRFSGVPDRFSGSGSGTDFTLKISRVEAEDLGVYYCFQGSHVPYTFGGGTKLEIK
23D5, recombinant IgG2c antibody, sequence (VH, as listed by the source, chain 1 of 2): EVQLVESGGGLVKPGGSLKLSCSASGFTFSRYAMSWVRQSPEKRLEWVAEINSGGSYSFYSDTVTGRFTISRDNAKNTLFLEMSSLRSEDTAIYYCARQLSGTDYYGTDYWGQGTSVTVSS
23D5, recombinant IgG2c antibody, sequence (VL, as listed by the source, chain 2 of 2): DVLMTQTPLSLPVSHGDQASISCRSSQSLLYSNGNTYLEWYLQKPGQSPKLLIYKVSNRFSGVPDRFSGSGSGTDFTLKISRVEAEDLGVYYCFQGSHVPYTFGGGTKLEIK
63F6, monoclonal anti-A199 antibody, sequence (VH, as listed by the source, chain 1 of 2): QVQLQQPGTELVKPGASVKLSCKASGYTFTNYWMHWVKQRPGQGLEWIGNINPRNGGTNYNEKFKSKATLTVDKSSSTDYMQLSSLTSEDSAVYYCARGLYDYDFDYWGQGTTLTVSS
63F6, monoclonal anti-A199 antibody, sequence (VL, as listed by the source, chain 2 of 2): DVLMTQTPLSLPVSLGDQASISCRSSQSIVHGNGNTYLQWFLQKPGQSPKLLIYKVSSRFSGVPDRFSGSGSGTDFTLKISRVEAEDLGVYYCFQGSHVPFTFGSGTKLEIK
6F4, monoclonal anti-L198 antibody, sequence (VH, as listed by the source, chain 1 of 2): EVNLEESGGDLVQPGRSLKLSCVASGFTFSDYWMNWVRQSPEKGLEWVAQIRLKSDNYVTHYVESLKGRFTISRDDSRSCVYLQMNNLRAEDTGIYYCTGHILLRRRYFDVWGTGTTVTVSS
6F4, monoclonal anti-L198 antibody, sequence (VL, as listed by the source, chain 2 of 2): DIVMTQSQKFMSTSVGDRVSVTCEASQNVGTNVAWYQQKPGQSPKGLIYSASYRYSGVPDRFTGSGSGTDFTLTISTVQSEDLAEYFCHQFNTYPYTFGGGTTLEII
17G4, recombinant IgG2c antibody, sequence (VH, as listed by the source, chain 1 of 2): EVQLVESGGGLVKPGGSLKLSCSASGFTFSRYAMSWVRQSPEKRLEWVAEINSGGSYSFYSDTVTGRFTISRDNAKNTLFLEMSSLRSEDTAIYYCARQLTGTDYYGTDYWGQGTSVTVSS
7C7, recombinant IgG2c antibody, sequence (VH, as listed by the source, chain 1 of 2): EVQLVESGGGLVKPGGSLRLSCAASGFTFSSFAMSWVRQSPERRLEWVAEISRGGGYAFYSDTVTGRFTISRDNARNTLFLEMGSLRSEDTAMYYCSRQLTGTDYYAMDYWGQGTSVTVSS
7C7, recombinant IgG2c antibody, sequence (VL, as listed by the source, chain 2 of 2): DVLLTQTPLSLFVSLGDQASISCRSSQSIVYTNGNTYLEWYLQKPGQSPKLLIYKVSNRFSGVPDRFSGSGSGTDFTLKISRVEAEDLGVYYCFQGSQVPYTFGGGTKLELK
36A12, monoclonal anti-A199 antibody, sequence (VH, as listed by the source, chain 1 of 2): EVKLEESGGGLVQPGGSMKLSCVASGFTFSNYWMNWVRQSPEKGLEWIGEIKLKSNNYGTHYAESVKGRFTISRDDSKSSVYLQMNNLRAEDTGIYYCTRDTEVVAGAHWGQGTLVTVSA
36A12, monoclonal anti-A199 antibody, sequence (VL, as listed by the source, chain 2 of 2): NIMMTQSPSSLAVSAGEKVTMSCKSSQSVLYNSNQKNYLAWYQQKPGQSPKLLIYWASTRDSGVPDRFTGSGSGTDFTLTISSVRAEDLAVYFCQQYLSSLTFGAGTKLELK
67G3, monoclonal anti-A199 antibody, sequence (VH, as listed by the source, chain 1 of 2): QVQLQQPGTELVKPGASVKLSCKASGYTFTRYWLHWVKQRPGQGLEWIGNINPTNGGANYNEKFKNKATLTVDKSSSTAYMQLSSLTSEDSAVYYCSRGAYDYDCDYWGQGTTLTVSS
67G3, monoclonal anti-A199 antibody, sequence (VL, as listed by the source, chain 2 of 2): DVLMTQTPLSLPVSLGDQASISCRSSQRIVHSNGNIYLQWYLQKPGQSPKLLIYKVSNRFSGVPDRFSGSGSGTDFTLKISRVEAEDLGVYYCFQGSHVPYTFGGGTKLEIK

B1: A199 N-terminal neo-epitope peptide AGQPLQ-Acp-C (SEQ ID NO:51) conjugated to BSA (peptide)
peptide: AGQPLQ[Ahx]C
modifications: not fully specified (residue 8); printed as AGQPLQ-Acp-C; also: C-terminal Cys conjugated to BSA carrier
notes: BSA carrier; also called A199-BSA peptide
IC50 [1]: 2.5 ng/mL | binding result [2]: no binding (tested: 10000 ng/ml) | binding result [3]: no binding (tested: 10000 ng/ml) | binding result [4]: no binding (tested: 10000 ng/ml) | binding result [5]: no binding (tested: 10000 ng/ml) | IC50 [6]: 52.6 ng/mL | binding result [7]: no binding (tested: 10000 ng/ml) | IC50 [8]: 2.9 ng/mL | IC50 [9]: 27.7 ng/mL

B2: 8B3, monoclonal anti-L198 antibody (antibody, IgG2b, V domains shown)
VH: EVKVEESGGGVVQPGGSMKLSCLASGFTFRNYWMNWVRQSPEKGLEWVAQIRLKSDNYATRYAESVKGRFTISRDDSKSSVYLQMNNLRAEDTGTYYCSGHILLRYYALDFWGQGTSVTVSS
VL: DIVLTQSQKFMSTSVGDRVSVTCKASQNVYTDVAWYQQKPGQSPKGMIYSASYRYSGVPDRFTGSGSGTDFTLKISNVQSEDLAEYFCQQYNSFPYTFGGGTKLEIK
koff [10]: 0.000302 s⁻¹ | Kd [11]: 12 nM | EC50 [12]: 8.4 ng/mL | EC50 [13]: 1.3 ng/mL | binding result [14]: binds | kon [15]: 42000 M⁻¹ s⁻¹ | binding result [16]: no binding (tested: 2 ug/ml (text))
